Consider one substance from article doi:10.1101/2021.05.21.445118.

Test in all cases: SPR
(In general: Surface plasmon resonance follows binding to a sensor surface in real time, without labels.)

The target of experiment [1] is human extracellular ACE2 p.Glu329Gly (human) (UniProt Q9BYF1).
Experiment [2] concerns the target human extracellular ACE2 p.Glu35Lys (human) (UniProt Q9BYF1).
The target of experiment [3] is human extracellular ACE2 p.Lys26Arg (human) (UniProt Q9BYF1).
Experiment [4] deals with human extracellular ACE2 p.Ser19Pro (human) (UniProt Q9BYF1).

As for “SARS-CoV-2 Spike receptor binding domain (from UniProt P0DTC2) (domain or fragment)”, the ΔΔG against WT ACE2 in experiment [1] was -0.377 kJ/mol; in experiment [2], -1.51 kJ/mol; in experiment [3], 1.09 kJ/mol; in experiment [4], 2.47 kJ/mol.
